The text below walks through data of patent publication US20180021429A1, “ANTICANCER AGENTS OR ANTIMETASTATIC AGENTS USING FSTL1 AND COMBINATION DRUG THEREOF” (PHARMA FOODS INTERNATIONAL CO., LTD., priority 2015, published 2018).

The test system of assay [1] is C57/BL/6 mouse-derived bone marrow cells. The assay is described as follows: MSC induction inhibition test using mouse bone marrow cells, FSTL1 stimulation (Example 27). The format is cell-based. The note with it: FSTL1 20 ng/mL; antibody 10 μg/mL; 8 days; FIG. 21A. The protocol: (§1) In this Example, the inhibitory activity of the anti-FSTL1 antibody was confirmed in an experimental system of mesenchymal stem cell induction while a FSTL1 inhibitory effect on MSC expansion induced not only by FSTL1 but by Snail+ tumor cells was also evaluated. For specific operation, each antibody (10 μg/mL) was added to systems in which C57/BL/6 mouse-derived bone marrow cells were stimulated with FSTL1 (20 ng/mL) or a culture supernatant of tumor cells. After culture for 8 days under stimulation, cell fraction CD45(−) cells (MSCs) containing MSCs at a high rate and CD45(−)CD146(+)ALCAM(+) cells (sMSCs) increasing in number in association with cancer metastasis were analyzed by flow cytometry in the same way as in Example 14, and the number of cells per culture system was counted. In this Example, mouse immunoglobulin manufactured by BioLegend, Inc. (#401408, Cone MG1-45) was used as a control antibody.

The test system of assay [2] is C57/BL/6 mouse-derived spleen cells. As to the kind of experiment: Treg induction inhibition test using mouse spleen cells (Example 28). In kind it is cell-based. The note with it: FSTL1 5 ng/ml; antibody 5 μg/mL; 3 days; FIG. 22. The protocol:
(§2) In this Example, the experiment was conducted according to Example 17. Specifically, 5 μg/mL of each antibody was added to a system in which C57/BL/6 mouse-derived spleen cells (2×10^6 cells) were stimulated with 5 ng/ml of FSTL1. After culture for 3 days, the percentage (%) of a Foxp3+CTLA4+ cell fraction in CD4+ T cells was analyzed as Treg cells by flow cytometry. Activity was compared with #6-55 used in the preceding studies.

In assay [3] the test system is GFP+F10-snail+ tumor cells. The assay is described as follows: In vivo drug efficacy of each anti-FSTL1 antibody clone, Snail+ tumor bone metastasis model (Example 32). Also noted: species or system mouse. The protocol:
(§3) • Day 0: transplantation of GFP+F10-snail+ tumor cells (3×10^5 cells subcutaneously & 2×10^4 cells intravenously) • Day 4: intraperitoneal administration of the antibody (first dose, 10 mg/kg) • Day 7: intraperitoneal administration of the antibody (second dose, 10 mg/kg)
(§4) Subcutaneous tumor was measured 4, 7, 10, 14, 17, 20, and 23 days after tumor cell transplantation.

Assay [4] addresses T1, FSTL1 (Homo sapiens, UniProt Q12841).
T1 sequence (Q12841 21-308): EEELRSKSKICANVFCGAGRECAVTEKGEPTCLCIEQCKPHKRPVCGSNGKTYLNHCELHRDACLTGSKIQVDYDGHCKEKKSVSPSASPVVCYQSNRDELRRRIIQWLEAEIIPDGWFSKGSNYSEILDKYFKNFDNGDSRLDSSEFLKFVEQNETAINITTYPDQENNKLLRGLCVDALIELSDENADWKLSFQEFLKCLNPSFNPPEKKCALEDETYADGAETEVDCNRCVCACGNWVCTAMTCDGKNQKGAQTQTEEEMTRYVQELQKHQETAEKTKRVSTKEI
As to the kind of experiment: Affinity of mouse chimeric antibodies, Biacore T-200 (Example 33). The format is binding. The protocol:
(§5) The mouse chimeric antibodies were immobilized onto Sensor Chip CM5 (GE Healthcare Japan Corp., BR-1005-30) using Mouse Antibody Capture Kit (GE Healthcare Japan Corp., BR-1008-38), and their affinity for human FSTL1 was calculated using Biacore T-200 (GE Healthcare Japan Corp.).
First, the exhaustive activity comparison of the obtained antibodies was conducted with the human FSTL1 concentration fixed to 10 μg/ml (Table 33-1, FIG. 28).
Next, the KD values of clone #6-55, #7-34, and #13 presumed to have high affinity in FIG. 28 were calculated with the antigen concentration adjusted to 0 to 20 μg/ml (Table 35-2).
On the technique in general: In SPR one partner is held on a chip, and binding of the other changes the refractive index at the surface.

The subject of assay [5] is C57/BL/6 mouse-derived bone marrow cells. As to the kind of experiment: MSC induction inhibition test using mouse bone marrow cells stimulated with FSTL1 (Example 27). In kind it is cell-based. To be noted: FSTL1 20 ng/mL, antibody 10 μg/mL, 8 days; flow cytometry; FIG. 115A. On the procedure:
as §1

Assay [6] relates to C57/BL/6 mouse-derived spleen cells. As to the kind of experiment: Treg induction inhibition test using mouse spleen cells stimulated with FSTL1 (Example 28). The format is cell-based. The note with it: FSTL1 5 ng/ml, antibody 5 μg/mL, 3 days; FIG. 116. The protocol:
as §2

Assay [7] deals with GFP+F10-snail+ tumor cells. The assay is described as follows: In vivo drug efficacy of each anti-FSTL1 antibody clone, GFP+F10-snail+ tumor model (Example 32). On the set-up: species or system mouse. On the procedure: as §3, §4
Assay [8] has as its target T1, FSTL1. As to the kind of experiment: Biacore T-200 affinity of mouse chimeric antibodies for human FSTL1 (Example 33). In kind it is binding. The protocol: as §5
First, the exhaustive activity comparison of the obtained antibodies was conducted with the human FSTL1 concentration fixed to 10 μg/ml (Table 33-1, FIG. 122).
Next, the KD values of clone #6-55, #7-34, and #13 presumed to have high affinity in FIG. 122 were calculated with the antigen concentration adjusted to 0 to 20 μg/ml (Table 35-2).

Assay [9] deals with GFP+F10-snail+ tumor cells. As to the kind of experiment: In vivo drug efficacy of each anti-FSTL1 antibody clone, GFP+F10-snail+ tumor model (Example 32). On the set-up: species or system mouse. The protocol:
as §3, §4
Experiment Group (n=5) Control IgG (anti-DNP mAb) • #6-55 • #7 • #10 • #13 • #33
• Day 0: transplantation of GFP+F10-snail+ tumor cells (3×10^5, cells subcutaneously & 2×10^4 cells intravenously) • Day 4: intraperitoneal administration of the antibody (first dose, 10 mg/kg) • Day 7: intraperitoneal administration of the antibody (second dose, 10 mg/kg)
The source holds these as a separate data set.

The target in assay [10] is T1, FSTL1. As to the kind of experiment: Affinity of mouse chimeric antibodies for human FSTL1, Biacore T-200 (Example 33). The format is binding. The protocol:
as §5
First, the exhaustive activity comparison of the obtained antibodies was conducted with the human FSTL1 concentration fixed to 10 μg/ml (Table 33-1, FIG. 58).
Next, the KD values of clone #6-55, #7-34, and #13 presumed to have high affinity in FIG. 58 were calculated with the antigen concentration adjusted to 0 to 20 μg/ml (Table 35-2).
First, the exhaustive activity comparison of the obtained antibodies was conducted with the human FSTL1 concentration fixed to 10 μg/ml (Table 33-1, FIG. 90).
Next, the KD values of clone #6-55, #7-34, and #13 presumed to have high affinity in FIG. 90 were calculated with the antigen concentration adjusted to 0 to 20 μg/ml (Table 35-2).

The target of assay [11] is T1, FSTL1. The assay is described as follows: MSC induction inhibition test using mouse bone marrow cells stimulated with FSTL1 (Example 27). In kind it is cell-based. Also noted: purchased R&D Systems, Inc. 1694-FN-050. To be noted: FSTL1 20 ng/mL, antibody 10 μg/mL, 8 days. On the procedure: as §1, with “([…],” for “(#401408,”
as §1

Assay [12] deals with T1, FSTL1. The assay is described as follows: Treg induction inhibition test using mouse spleen cells stimulated with FSTL1 (Example 28). On the set-up: purchased R&D Systems, Inc. 1694-FN-050. To be noted: FSTL1 5 ng/ml, antibody 5 μg/mL, 3 days. The format is cell-based. The protocol: as §2
In this Example, the experiment was conducted according to Example 17. Specifically, 5 μg/mL of each antibody was added to a system in which C57/BL/6 mouse-derived spleen cells (2×10^6 cells) were stimulated with 5 ng/ml of FSTL1. After culture for 3 days, the percentage (%) of a Foxp3+CTLA4+ cell fraction in CD4+ T cells was analyzed as Treg cells by flow cytometry. Activity was compared with […] used in the preceding studies.

B1: #10: chicken-mouse chimeric anti-FSTL1 antibody clone; variable regions SEQ ID NO: 811 (light), 813 (heavy) (antibody, V domains shown)
VH: AVTLDESGGGLQTPGGALSLVCKASGFFFFRIYDMGWVRQAPGKGLEWVAGIDDYGRYTGYGSAVKGRATISRDNGQSTVRLQLNNLRAEDTGTYYCARGAGTGCNSAGCGAYAGSIDAWGHGTEVIVSS
VL: ASTQPSSVSANPGETVKLTCSGGGSRYGWYQQKSPGSAPVTVIYYNDKRPSDIPSRFSGSKSGSTATLTITGVQAEDEAVYFCGGYDGSRDAGIFGAGTTLTVL
modifications: mouse constant regions
For the molecule B1, the “MSC induction inhibitory activity (CD45(−) MSCs, CD45(−)CD146(+)ALCAM(+) sMSCs)” value in assay [1] is “high MSC induction inhibitory activity equivalent to or higher than that of #6-55”. Besides, the “Treg induction (Foxp3+CTLA4+ cell fraction in CD4+ T cells)” value in [2] was “strong suppressive activity equal to or higher than that of #6-55”. Also, the “mouse survival period (life-prolonging effect)” value in assay [3] (intraperitoneal 10 mg/kg on days 4 and 7, FIG. 27) is on record as “therapeutic effects equal to or higher than those of #6-55”; in [7] (intraperitoneal 10 mg/kg on days 4 and 7, FIG. 121), “therapeutic effects equal to or higher than those of #6-55”; in assay [9] (intraperitoneal 10 mg/kg on days 4 and 7, vs control antibody) it was “therapeutic effects equal to or higher than those of #6-55”. The “comprehensive evaluation of antitumor activity” value in assay [3] (mouse, in vivo) is recorded as “high antitumor activity exceeding that of #6-55”; in assay [7] (stated as a possibility) it was “high antitumor activity exceeding that of #6-55”; in assay [9] (mouse, in vivo) it was “high antitumor activity exceeding that of #6-55”. Also, the “affinity in surface plasmon resonance assay” value with FSTL1 [4] is “strong affinity”. The “MSC induction inhibitory effect” value in [5] was “strong inhibitory effect equivalent to or higher than that of #6-55”. Moreover, the “Treg induction (Foxp3+CTLA4+ fraction in CD4+ T cells)” value (in assay [6]; with FSTL1 [12]) was “strong suppressive activity equal to or higher than that of #6-55” throughout. In addition, the “affinity in an assay system using surface plasmon resonance” value with FSTL1 [8] and with FSTL1 [10] was “strong affinity” each time. Also, in the assay with FSTL1 [11], the “MSC induction inhibitory activity, reproducibility confirmed” value is “high MSC induction inhibitory activity equivalent to or higher than that of #6-55”. In the assay with FSTL1 [11], the “inhibitory effect in the MSC induction inhibition test (CD45(−) MSCs and sMSCs, flow cytometry)” value is “strong inhibitory effect equivalent to or higher than that of #6-55”.
